Assay [1] addresses ACE2(18–740)-QMP: truncated dimeric human ACE2 (residues 18–740) fused to the N-terminal end of engi (human) (UniProt Q9BYF1). Nature of the assay: SPR; pH 5.5. Background: SPR reads the build-up and loss of mass on a sensor chip optically.
Assay [2] shares this target. Kind of assay: SPR.

A word on the Kd: it is a measure of binding affinity in units of concentration. Higher therefore signals a looser complex. As a reminder, the koff is a measure of how fast the partners let go of each other. The term kon denotes the second-order rate constant of association. A higher kon goes with fast association.

Chain of soluble His-tagged human neonatal Fc receptor (human FcRn-His) (P55899 24-297): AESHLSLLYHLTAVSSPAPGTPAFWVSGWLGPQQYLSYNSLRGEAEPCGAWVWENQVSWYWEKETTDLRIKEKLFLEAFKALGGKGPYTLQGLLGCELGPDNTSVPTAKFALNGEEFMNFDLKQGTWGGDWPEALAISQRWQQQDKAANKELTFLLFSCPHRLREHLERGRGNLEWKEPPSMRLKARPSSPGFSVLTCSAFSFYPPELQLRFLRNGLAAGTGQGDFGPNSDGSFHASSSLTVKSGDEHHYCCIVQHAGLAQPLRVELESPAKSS
Chain of soluble His-tagged human neonatal Fc receptor (human FcRn-His) (P61769 21-119): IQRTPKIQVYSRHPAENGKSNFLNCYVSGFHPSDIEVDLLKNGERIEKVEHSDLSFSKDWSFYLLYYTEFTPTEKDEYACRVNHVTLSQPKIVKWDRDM

In assay [1], “soluble His-tagged human neonatal Fc receptor (human FcRn-His) (from UniProt P55899 24-297; P61769 21-119)” returned a Kd of 0.8 nM and a koff of 0.0002 s⁻¹. This substance also showed a kon in assay [2] of 254000 M⁻¹ s⁻¹.

Values taken from PMC10703496.
